Assay results reported in US9018171B2, “Uses of an immunomodulatory protein (GMI) from Ganoderma microsporum” (Mycomagic Biotechnology Co., Ltd., priority 2010, dated 2015).
Read-outs that look alike come from different tables or passages of the source.

Columns and labels:
[1] = system: Akt; assay: Western blotting, EGF-induced phosphorylation; assay type: cell-based, human; details: A549 cells, pretreated 8 h, EGF 10 minutes
Procedure: (§1) A549 cells (5×10^5 cells/60 mm) were pretreated with various concentrations of GMI (4, 16 μg/ml) or AG1478 (EGFR inhibitors) for 8 hours prior to incubation for 10 minutes with EGF (as indicated). Cell lysates were subject to immunoblotting with phospho-specific EGFR (Y1068) (A and B), anti-phospho-AKT (A), anti-AKT (A), anti-phospho-GSK3β (A) or anti-phospho-STAT3 antibodies (B). Protein loading was determined by Western blotting against β-actin (A and B).
(§2) Total cell lysates were prepared in RIPA buffer (100 μl in 60 mm in dish). Fifty μg of lysate were loaded onto an 8% polyacrylamide gel and analyzed by SDS gel electrophoresis. After transfer to PVDF (Amersham), blots were blocked with 5% skim milk in TBS (10 mM Tris-CL pH7.5, 150 mM NaCl) containing 0.2% Tween-20. Blots were probed with antibodies (at their recommended dilutions) in 5% skim milk in TBS overnight at 4° C. Following detection with the appropriate horseradish-peroxidase conjugated secondary antibody (Cell Signaling), blots were developed by enhanced chemiluminescence according to the manufacturer's directions (Perkin Elmer Life Sciences). All experiments were performed in duplicate.
(§3) To assess whether GMI mediates and/or inhibits phosphorylation of Akt and Stat3, the invention investigated the effect of GMI on the phosphorylation status of Akt and Stat3 in A549 cells treated with various concentrations of GMI for 8 h.

[2] = system: EGFR; assay: Western blotting, EGF-induced phosphorylation; assay type: cell-based, human; details: A549 cells, pretreated 8 h, EGF 10 minutes
Procedure: as §1, §2, §3

[3] = system: Stat3; assay: Western blotting, EGF-induced phosphorylation; assay type: cell-based, human; details: A549 cells, pretreated 8 h, EGF 10 minutes
Procedure: as §1, §2, §3

[4] = system: CCRF-CEM; assay: NCI60 in vitro screening, Leukemia; assay type: cell-based
[5] = system: K-562; assay: NCI60 in vitro screening, Leukemia; assay type: cell-based
[6] = system: NCI-H522; assay type: cell-based
[7] = system: COLO 205; assay: NCI60 in vitro screening, Colon Cancer; assay type: cell-based
[8] = system: HCC-2998; assay: NCI60 in vitro screening, Colon Cancer; assay type: cell-based
[9] = system: HCT-15; assay: NCI60 in vitro screening, Colon Cancer; assay type: cell-based
[10] = system: SW-620; assay: NCI60 in vitro screening, Colon Cancer; assay type: cell-based
[11] = system: SK-MEL-28; assay: NCI60 in vitro screening, Melanoma; assay type: cell-based
[12] = system: SK-MEL-5; assay: NCI60 in vitro screening, Melanoma; assay type: cell-based
[13] = system: UACC-257; assay: NCI60 in vitro screening, Melanoma; assay type: cell-based
[14] = system: UACC-62; assay: NCI60 in vitro screening, Melanoma; assay type: cell-based
[15] = system: MCF7; assay: NCI60 in vitro screening, Breast Cancer; assay type: cell-based
[16] = system: MDA-MB-231/ATCC; assay: NCI60 in vitro screening, Breast Cancer; assay type: cell-based
[17] = system: U251; assay: NCI60 in vitro screening, CNS Cancer; assay type: cell-based; details: U251, one dose

B1: GMI: immunomodulatory protein from Ganoderma microsporum, amino acid sequence SEQ ID NO: 3, manufactured by Mycomagic Biotechnology Co., Ltd. (protein, listed as Ganoderma microsporum)
chain: MSDTALIFTLAWNVKQLAFDYTPNWGRGRPSSFIDTVTFPTVLTDKAYTYRVVVSGKDLGVRPSYAVESDGSQKINFLEYNSGYGIADTNTIQVYVIDPDTGNNFIVAQWN
EGF-induced activation (phosphorylation) of Akt [1]: significantly inhibits
EGF-induced activation (phosphorylation) of EGFR [2]: significantly inhibits
EGF-induced activation (phosphorylation) of Stat3 [3]: little effect
TGI [4]: >1.25E2
Percent Growth ([4]; Log10 Concentration 0.1): 97%
Percent Growth ([4]; Log10 Concentration 1.1): 58%
Percent Growth ([4]; Log10 Concentration 2.1): 18%
Percent Growth ([4]; Log10 Concentration −0.9): 101%
Percent Growth ([4]; Log10 Concentration −1.9): 104%
GI50 ([4]; in µg/mL): 2.02E1
TGI ([5]; K-562): >1.25E2
Percent Growth ([5]; K-562, Log10 Concentration 0.1): 101%
Percent Growth ([5]; K-562, Log10 Concentration 1.1): 97%
Percent Growth ([5]; K-562, Log10 Concentration 2.1): 90%
Percent Growth ([5]; K-562, Log10 Concentration −0.9): 98%
Percent Growth ([5]; K-562, Log10 Concentration −1.9): 96%
Growth Percent ([5]; K-562, one dose): 125.37%
TGI ([6]; NCI-H522): 1.25E2
Percent Growth ([6]; NCI-H522, Log10 Concentration 0.1): 105%
Percent Growth ([6]; NCI-H522, Log10 Concentration 1.1): 98%
Percent Growth ([6]; NCI-H522, Log10 Concentration 2.1): 53%
Percent Growth ([6]; NCI-H522, Log10 Concentration −0.9): 100%
Percent Growth ([6]; NCI-H522, Log10 Concentration −1.9): 95%
Growth Percent ([6]; NCI-H522, one dose): 125.90%
TGI ([7]; COLO 205): >1.25E2
Percent Growth ([7]; COLO 205, Log10 Concentration 0.1): 100%
Percent Growth ([7]; COLO 205, Log10 Concentration 1.1): 95%
Percent Growth ([7]; COLO 205, Log10 Concentration 2.1): 95%
Percent Growth ([7]; COLO 205, Log10 Concentration −0.9): 98%
Percent Growth ([7]; COLO 205, Log10 Concentration −1.9): 95%
Growth Percent ([7]; COLO 205, one dose): 105.56%
TGI ([8]; HCC-2998): >1.25E2
Percent Growth ([8]; HCC-2998, Log10 Concentration 0.1): 105%
Percent Growth ([8]; HCC-2998, Log10 Concentration 1.1): 93%
Percent Growth ([8]; HCC-2998, Log10 Concentration 2.1): 88%
Percent Growth ([8]; HCC-2998, Log10 Concentration −0.9): 99%
Percent Growth ([8]; HCC-2998, Log10 Concentration −1.9): 103%
Growth Percent ([8]; HCC-2998, one dose): 132.04%
TGI ([9]; HCT-15): 5.26E1
Percent Growth ([9]; HCT-15, Log10 Concentration 0.1): 94%
Percent Growth ([9]; HCT-15, Log10 Concentration 1.1): 52%
Percent Growth ([9]; HCT-15, Log10 Concentration 2.1): −31%
Percent Growth ([9]; HCT-15, Log10 Concentration −0.9): 97%
Percent Growth ([9]; HCT-15, Log10 Concentration −1.9): 97%
Growth Percent ([9]; HCT-15, one dose): 33.64%
GI50 ([9]; HCT-15, in µg/mL): 1.31E1
TGI ([10]; SW-620): >1.25E2
Percent Growth ([10]; SW-620, Log10 Concentration 0.1): 102%
Percent Growth ([10]; SW-620, Log10 Concentration 1.1): 95%
Percent Growth ([10]; SW-620, Log10 Concentration 2.1): 53%
Percent Growth ([10]; SW-620, Log10 Concentration −0.9): 100%
Percent Growth ([10]; SW-620, Log10 Concentration −1.9): 102%
Growth Percent ([10]; SW-620, one dose): 87.57%
TGI ([11]; SK-MEL-28): >1.25E2
Percent Growth ([11]; SK-MEL-28, Log10 Concentration 0.1): 110%
Percent Growth ([11]; SK-MEL-28, Log10 Concentration 1.1): 98%
Percent Growth ([11]; SK-MEL-28, Log10 Concentration 2.1): 72%
Percent Growth ([11]; SK-MEL-28, Log10 Concentration −0.9): 103%
Percent Growth ([11]; SK-MEL-28, Log10 Concentration −1.9): 98%
Growth Percent ([11]; SK-MEL-28, one dose): 106.96%
TGI ([12]; SK-MEL-5): 4.26E1
Percent Growth ([12]; SK-MEL-5, Log10 Concentration 0.1): 103%
Percent Growth ([12]; SK-MEL-5, Log10 Concentration 1.1): 94%
Percent Growth ([12]; SK-MEL-5, Log10 Concentration 2.1): −83%
Percent Growth ([12]; SK-MEL-5, Log10 Concentration −0.9): 101%
Percent Growth ([12]; SK-MEL-5, Log10 Concentration −1.9): 101%
Growth Percent ([12]; SK-MEL-5, one dose): 83.26%
GI50 ([12]; SK-MEL-5, in µg/mL): 2.22E1
LC50 ([12]; SK-MEL-5, in µg/mL): 8.17E1
TGI ([13]; UACC-257): >1.25E2
Percent Growth ([13]; UACC-257, Log10 Concentration 0.1): 98%
Percent Growth ([13]; UACC-257, Log10 Concentration 1.1): 37%
Percent Growth ([13]; UACC-257, Log10 Concentration 2.1): 52%
Percent Growth ([13]; UACC-257, Log10 Concentration −0.9): 99%
Percent Growth ([13]; UACC-257, Log10 Concentration −1.9): 103%
Growth Percent ([13]; UACC-257, one dose): 89.25%
TGI ([14]; UACC-62): >1.25E2
Percent Growth ([14]; UACC-62, Log10 Concentration 0.1): 99%
Percent Growth ([14]; UACC-62, Log10 Concentration 1.1): 106%
Percent Growth ([14]; UACC-62, Log10 Concentration 2.1): 68%
Percent Growth ([14]; UACC-62, Log10 Concentration −0.9): 101%
Percent Growth ([14]; UACC-62, Log10 Concentration −1.9): 105%
Growth Percent ([14]; UACC-62, one dose): 115.96%
TGI ([15]; MCF7): >1.25E2
Percent Growth ([15]; MCF7, Log10 Concentration 0.1): 93%
Percent Growth ([15]; MCF7, Log10 Concentration 1.1): 49%
Percent Growth ([15]; MCF7, Log10 Concentration 2.1): 23%
Percent Growth ([15]; MCF7, Log10 Concentration −0.9): 104%
Percent Growth ([15]; MCF7, Log10 Concentration −1.9): 100%
Growth Percent ([15]; MCF7, one dose): 42.68%
GI50 ([15]; MCF7, in µg/mL): 1.15E1
TGI [16]: 3.65E1
Percent Growth ([16]; Log10 Concentration 0.1): 93%
Percent Growth ([16]; Log10 Concentration 1.1): 41%
Percent Growth ([16]; Log10 Concentration 2.1): −47%
Percent Growth ([16]; Log10 Concentration −0.9): 96%
Percent Growth ([16]; Log10 Concentration −1.9): 103%
GI50 ([16]; in µg/mL): 8.34E0
Growth Percent ([16]; one dose): 23.69%
Growth Percent [17]: 69.04%
